Test results reported in publication PMC3229523, “Identification of Lactoferricin B Intracellular Targets Using an Escherichia coli Proteome Chip” (PLoS ONE, 2011).
Ends that are not written are not given here. * marks the point of attachment. Biotin = O=C1N[C@H]2[C@H](CS[C@H]2CCCCC(=O)*)N1

What was measured:
Test in all cases: peptide or protein array; E. coli proteome chip: purified His-tagged proteins printed in duplicate on Fullmoon slides, blocked with 1% BSA; 10 nM N-terminal biotinylated LfcinB with 1% BSA, room temperature, 1 h; detected with DyLight 649-labeled streptavidin, ratio to DyLight 549-labeled anti-His antibody; ProCAT normalisation, local cut-off; triplicate chips
Conditions in all cases: both partners purified
YbaE = target: T1, YbaE (E. coli K-12, UniProt P46890 1-566)
T1 construct: YbaE, E. coli K-12
T1 sequence (looked up): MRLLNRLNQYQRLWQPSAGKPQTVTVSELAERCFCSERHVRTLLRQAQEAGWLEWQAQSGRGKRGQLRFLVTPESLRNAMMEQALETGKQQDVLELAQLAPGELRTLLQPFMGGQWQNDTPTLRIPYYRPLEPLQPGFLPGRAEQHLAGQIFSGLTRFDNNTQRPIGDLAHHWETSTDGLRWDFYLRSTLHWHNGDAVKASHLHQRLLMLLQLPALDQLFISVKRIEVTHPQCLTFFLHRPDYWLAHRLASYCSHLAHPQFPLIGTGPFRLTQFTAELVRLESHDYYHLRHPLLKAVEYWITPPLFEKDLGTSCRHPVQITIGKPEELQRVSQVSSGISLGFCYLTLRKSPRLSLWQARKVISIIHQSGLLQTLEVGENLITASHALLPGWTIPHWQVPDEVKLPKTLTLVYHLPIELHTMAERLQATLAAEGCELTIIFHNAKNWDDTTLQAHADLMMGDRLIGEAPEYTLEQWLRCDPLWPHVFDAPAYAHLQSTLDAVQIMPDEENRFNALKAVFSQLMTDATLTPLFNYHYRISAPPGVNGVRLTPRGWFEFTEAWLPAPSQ

RpsB = RpsB (E. coli K-12, UniProt P0A7V0 1-241)
MdoG = target: T2, MdoG (E. coli K-12, UniProt P33136 23-511)
T2 construct: MdoG, E. coli K-12
T2 sequence (looked up): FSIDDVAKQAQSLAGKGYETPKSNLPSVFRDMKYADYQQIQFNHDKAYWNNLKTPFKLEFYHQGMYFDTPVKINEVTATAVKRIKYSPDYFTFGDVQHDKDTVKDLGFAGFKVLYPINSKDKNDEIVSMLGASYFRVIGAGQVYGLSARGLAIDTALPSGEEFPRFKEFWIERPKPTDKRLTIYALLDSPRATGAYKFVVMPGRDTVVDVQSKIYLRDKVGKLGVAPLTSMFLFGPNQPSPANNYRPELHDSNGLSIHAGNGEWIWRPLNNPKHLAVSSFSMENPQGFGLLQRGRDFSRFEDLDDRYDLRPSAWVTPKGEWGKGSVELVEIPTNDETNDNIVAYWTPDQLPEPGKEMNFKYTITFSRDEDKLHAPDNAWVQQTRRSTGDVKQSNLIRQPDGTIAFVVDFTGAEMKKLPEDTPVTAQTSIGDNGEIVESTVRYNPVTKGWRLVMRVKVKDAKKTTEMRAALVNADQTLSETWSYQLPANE

MetL = target: T3, MetL (E. coli K-12, UniProt P00562 1-810)
T3 construct: MetL, E. coli K-12
T3 sequence (looked up): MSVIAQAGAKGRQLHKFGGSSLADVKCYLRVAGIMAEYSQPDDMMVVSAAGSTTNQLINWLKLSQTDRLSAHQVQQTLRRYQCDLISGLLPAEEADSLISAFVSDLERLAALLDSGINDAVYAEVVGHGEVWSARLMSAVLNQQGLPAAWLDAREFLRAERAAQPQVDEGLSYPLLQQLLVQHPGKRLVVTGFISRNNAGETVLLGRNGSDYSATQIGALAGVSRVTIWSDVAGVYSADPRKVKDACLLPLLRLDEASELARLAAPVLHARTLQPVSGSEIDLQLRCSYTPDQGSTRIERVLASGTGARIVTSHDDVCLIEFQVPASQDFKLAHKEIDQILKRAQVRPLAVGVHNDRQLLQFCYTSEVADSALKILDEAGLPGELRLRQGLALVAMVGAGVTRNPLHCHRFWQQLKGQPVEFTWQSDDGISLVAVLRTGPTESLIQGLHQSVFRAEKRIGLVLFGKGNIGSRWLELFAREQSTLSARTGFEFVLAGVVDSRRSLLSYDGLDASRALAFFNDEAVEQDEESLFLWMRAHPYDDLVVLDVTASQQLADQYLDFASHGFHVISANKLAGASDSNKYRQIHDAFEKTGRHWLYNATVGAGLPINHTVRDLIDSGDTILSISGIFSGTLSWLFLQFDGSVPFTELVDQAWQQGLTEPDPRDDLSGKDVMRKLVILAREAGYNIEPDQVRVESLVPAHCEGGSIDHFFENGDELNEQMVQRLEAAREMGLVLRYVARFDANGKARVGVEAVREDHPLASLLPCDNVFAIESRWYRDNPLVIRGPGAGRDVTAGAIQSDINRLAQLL

Measured: binding result

B1: N-terminal biotinylated Lactoferricin B (peptide, UniProt P24627 36-60, looked up)
peptide: Biotin-FKCRRWQWRMKKLGAPSITCVRRAF
modifications: ends and bridges not checked
notes: lactoferricin B (LfcinB), cationic antimicrobial peptide of 25 amino acids; also called biotinylated LfcinB; biotin-labeled LfcinB; source: bought: Kelowna Inc
binds: all assays above
